According to paper PMC3310817, “Liver X Receptors Regulate the Transcriptional Activity of the Glucocorticoid Receptor: Implications for the Carbohydrate Metabolism”:

What was measured:
[1] = target: T1, LXRα (recombinant, Active Motif);RXRα (recombinant, Active Motif) (Homo sapiens;Homo sapiens, UniProt Q13133;P19793 1-447;1-462, |); test: EMSA; GW3965 (enhances binding); EMSA: 10 mM HEPES pH 8.0, 0.1 mM EDTA, 2 mM DTT, 50 mM NaCl, 5 mM MgCl2, 50 mM KCl, 4 mM spermidine, 4% Ficoll, 1 ug poly(dI-dC); preincubation 10 min 4 C, then 15 min room temperature with probe; details: protein: commercial;commercial; tags: ;; copies: 1;1; label: 32P; blunt
[2] = target: T1, LXRα (recombinant, Active Motif);RXRα …; test: EMSA; complex C; EMSA: 10 mM HEPES pH 8.0, 0.1 mM EDTA, 2 mM DTT, 50 mM NaCl, 5 mM MgCl2, 50 mM KCl, 4 mM spermidine, 4% Ficoll, 1 ug poly(dI-dC); preincubation 10 min 4 C, then 15 min room temperature with probe; details: protein: commercial;commercial; tags: ;; copies: 1;1; label: 32P; blunt

T1 sequence (Q13133 whole entry, chain 1 of 2): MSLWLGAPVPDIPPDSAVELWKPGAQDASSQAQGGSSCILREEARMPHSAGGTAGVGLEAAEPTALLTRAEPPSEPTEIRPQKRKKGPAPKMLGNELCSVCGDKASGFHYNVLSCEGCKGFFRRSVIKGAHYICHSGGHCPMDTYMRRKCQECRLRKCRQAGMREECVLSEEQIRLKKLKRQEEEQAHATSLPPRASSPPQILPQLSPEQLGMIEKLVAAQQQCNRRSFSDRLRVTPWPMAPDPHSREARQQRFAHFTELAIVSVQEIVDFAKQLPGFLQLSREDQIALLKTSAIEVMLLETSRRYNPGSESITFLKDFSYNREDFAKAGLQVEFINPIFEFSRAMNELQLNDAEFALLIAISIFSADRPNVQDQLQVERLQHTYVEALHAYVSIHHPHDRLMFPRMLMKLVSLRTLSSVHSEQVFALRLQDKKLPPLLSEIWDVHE
T1 sequence (P19793 whole entry, chain 2 of 2): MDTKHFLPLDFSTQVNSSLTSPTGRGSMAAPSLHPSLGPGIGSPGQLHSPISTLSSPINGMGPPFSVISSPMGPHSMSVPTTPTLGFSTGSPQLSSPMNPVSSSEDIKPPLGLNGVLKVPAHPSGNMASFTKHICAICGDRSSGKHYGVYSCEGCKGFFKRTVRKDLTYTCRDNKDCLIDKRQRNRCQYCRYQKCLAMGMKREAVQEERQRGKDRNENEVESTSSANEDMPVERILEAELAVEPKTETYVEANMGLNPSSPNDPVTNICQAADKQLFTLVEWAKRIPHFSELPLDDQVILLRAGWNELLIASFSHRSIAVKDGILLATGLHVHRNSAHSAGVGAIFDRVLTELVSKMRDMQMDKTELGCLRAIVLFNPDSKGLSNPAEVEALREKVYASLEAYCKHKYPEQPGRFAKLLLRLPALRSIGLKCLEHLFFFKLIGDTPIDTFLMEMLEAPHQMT

B1: Classic GRE wt (dsDNA)
DNA 1: AGCTGGTACAAACTGTTCTAGCT
DNA 2: AGCTAGAACAGTTTGTACCAGCT
binding result [1]: binds

B2: G6Pase GRE wt (dsDNA)
DNA 1: GCACTGTCAAGCAGTGTGCCCAAGTTAATAATT
DNA 2: AATTATTAACTTGGGCACACTGCTTGACAGTGC
binding result [2]: binds
